Assay [1] has as its target chimeric TfR A02 (human/mouse chimera) (UniProt P02786). The assay is described as follows: ELISA on immobilized chimeric TfR.
Assay [2] deals with huTfR with mouse apical domain (human/mouse chimera) (UniProt P02786). In words: ELISA on immobilized chimeric TfR. In general terms: ELISA stands for enzyme-linked immunosorbent assay.
For assay [3], the target named is chimeric TfR A03 (human/mouse chimera) (UniProt P02786). In words: ELISA on immobilized chimeric TfR; grade = binding relative to His-huTfR (++ 0.5 or more, + 0.2 to less than 0.5).
Sequence of chimeric TfR A03 (human/mouse chimera) (P02786 other isoform, or with tags, fused parts or gaps mutant): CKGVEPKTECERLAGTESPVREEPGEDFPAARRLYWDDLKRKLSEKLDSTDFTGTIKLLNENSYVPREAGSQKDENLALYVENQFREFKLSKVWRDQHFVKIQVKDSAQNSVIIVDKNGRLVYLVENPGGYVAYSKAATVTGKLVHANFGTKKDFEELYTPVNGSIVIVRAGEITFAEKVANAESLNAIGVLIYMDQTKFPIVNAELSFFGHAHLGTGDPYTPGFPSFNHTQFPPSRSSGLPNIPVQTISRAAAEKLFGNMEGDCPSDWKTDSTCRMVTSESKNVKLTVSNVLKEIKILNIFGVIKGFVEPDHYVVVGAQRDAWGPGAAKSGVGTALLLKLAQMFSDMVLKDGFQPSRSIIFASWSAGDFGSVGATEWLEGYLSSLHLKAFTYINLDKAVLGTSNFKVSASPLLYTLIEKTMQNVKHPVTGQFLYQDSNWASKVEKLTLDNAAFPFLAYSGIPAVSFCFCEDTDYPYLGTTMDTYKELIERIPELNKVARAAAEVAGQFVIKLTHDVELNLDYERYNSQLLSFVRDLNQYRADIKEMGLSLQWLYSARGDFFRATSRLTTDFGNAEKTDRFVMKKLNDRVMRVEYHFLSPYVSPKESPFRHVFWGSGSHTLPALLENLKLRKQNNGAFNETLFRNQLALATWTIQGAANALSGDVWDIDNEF
Assay [4] has as its target chimeric TfR A04 (human/mouse chimera) (UniProt P02786). Described as above.
For assay [5], the target named is chimeric TfR A05 (human/mouse chimera) (UniProt P02786). Described as above.
Sequence of chimeric TfR A05 (human/mouse chimera) (P02786 other isoform, or with tags, fused parts or gaps mutant): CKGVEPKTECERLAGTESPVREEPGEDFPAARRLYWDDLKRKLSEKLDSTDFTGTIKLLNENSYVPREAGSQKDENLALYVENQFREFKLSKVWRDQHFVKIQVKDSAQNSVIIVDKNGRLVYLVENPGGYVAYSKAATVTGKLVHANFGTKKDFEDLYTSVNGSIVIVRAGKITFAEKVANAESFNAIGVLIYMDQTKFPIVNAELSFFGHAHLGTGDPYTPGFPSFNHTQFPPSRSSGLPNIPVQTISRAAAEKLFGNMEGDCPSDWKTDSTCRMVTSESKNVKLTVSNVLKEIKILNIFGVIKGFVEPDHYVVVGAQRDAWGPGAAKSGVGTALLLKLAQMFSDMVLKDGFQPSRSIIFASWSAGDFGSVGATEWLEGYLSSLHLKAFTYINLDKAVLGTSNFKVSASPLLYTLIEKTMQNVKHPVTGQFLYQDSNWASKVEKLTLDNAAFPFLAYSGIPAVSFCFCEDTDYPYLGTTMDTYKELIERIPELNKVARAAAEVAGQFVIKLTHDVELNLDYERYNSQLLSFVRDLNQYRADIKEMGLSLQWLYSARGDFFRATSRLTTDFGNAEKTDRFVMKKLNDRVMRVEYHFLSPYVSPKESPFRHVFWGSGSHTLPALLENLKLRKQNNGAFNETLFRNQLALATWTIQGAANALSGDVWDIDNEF
The target in assay [6] is chimeric TfR A07 (human/mouse chimera) (UniProt P02786). The assay is described as above.
Sequence of chimeric TfR A07 (human/mouse chimera) (P02786 other isoform, or with tags, fused parts or gaps mutant): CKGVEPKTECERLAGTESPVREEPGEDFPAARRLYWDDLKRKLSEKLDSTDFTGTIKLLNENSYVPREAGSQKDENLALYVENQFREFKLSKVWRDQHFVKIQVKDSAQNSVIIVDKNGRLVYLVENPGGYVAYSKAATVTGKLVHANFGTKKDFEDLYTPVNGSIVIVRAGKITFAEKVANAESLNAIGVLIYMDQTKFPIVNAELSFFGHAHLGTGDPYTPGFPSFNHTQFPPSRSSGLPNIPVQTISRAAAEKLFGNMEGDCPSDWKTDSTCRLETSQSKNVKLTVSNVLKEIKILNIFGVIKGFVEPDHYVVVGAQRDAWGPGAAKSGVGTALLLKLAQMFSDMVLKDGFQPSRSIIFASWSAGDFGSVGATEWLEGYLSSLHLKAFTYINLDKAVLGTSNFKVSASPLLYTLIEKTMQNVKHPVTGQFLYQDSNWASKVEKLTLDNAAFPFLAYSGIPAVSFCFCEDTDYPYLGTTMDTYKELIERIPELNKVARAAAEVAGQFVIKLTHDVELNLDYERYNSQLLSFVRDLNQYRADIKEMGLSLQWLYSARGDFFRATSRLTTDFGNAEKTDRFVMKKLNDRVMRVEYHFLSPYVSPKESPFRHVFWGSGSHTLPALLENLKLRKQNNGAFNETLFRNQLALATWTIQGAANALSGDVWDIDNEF
Assay [7] concerns the target chimeric TfR A14 (human/mouse chimera) (UniProt P02786). Described as above.
Assay [8] deals with huTfR with mouse protease-like domain (human/mouse chimera). The description is as above.
Assay [9] deals with chimeric TfR A03 (human/mouse chimera) (UniProt P02786). The assay is described as follows: ELISA on immobilized chimeric TfR.
For assay [10], the target named is chimeric TfR A04 (human/mouse chimera) (UniProt P02786). The assay is described as follows: ELISA on immobilized chimeric TfR.
Sequence of chimeric TfR A04 (human/mouse chimera) (P02786 other isoform, or with tags, fused parts or gaps mutant): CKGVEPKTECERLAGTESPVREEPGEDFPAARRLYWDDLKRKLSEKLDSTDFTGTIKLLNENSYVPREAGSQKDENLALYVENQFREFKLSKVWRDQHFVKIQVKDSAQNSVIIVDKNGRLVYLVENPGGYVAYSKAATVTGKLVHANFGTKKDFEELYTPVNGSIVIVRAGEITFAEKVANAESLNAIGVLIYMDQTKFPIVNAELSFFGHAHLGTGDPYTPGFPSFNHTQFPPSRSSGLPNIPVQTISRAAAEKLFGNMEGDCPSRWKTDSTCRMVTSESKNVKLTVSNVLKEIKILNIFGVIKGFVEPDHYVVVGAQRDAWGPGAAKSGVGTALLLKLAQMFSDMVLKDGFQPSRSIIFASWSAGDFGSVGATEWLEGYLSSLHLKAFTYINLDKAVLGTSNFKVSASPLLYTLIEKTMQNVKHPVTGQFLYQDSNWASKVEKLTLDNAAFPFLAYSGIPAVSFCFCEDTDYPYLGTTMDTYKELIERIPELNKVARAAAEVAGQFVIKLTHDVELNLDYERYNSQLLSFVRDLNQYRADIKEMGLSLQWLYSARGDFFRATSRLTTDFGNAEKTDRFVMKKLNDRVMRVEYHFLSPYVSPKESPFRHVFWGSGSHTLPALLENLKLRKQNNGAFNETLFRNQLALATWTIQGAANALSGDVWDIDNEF

Sequence of chimeric TfR A14 (human/mouse chimera) (P02786 other isoform, or with tags, fused parts or gaps mutant): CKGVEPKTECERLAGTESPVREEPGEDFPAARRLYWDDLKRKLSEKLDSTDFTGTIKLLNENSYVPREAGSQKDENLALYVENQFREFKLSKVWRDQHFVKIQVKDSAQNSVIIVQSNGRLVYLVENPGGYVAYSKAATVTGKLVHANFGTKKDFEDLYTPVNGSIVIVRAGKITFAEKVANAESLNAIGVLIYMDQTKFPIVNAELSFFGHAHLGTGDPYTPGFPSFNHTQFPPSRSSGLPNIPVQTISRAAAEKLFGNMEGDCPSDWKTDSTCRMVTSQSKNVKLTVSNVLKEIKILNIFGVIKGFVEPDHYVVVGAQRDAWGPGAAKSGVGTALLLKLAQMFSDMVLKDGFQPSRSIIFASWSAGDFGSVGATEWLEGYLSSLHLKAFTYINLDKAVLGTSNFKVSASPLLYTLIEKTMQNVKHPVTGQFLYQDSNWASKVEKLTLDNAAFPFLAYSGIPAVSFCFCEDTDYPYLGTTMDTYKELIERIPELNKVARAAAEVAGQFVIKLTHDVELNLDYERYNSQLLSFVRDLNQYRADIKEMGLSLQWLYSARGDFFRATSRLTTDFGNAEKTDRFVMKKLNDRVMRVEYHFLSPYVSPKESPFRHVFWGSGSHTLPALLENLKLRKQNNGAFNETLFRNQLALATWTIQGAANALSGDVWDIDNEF
Sequence of huTfR with mouse apical domain (human/mouse chimera) (P02786 other isoform, or with tags, fused parts or gaps mutant): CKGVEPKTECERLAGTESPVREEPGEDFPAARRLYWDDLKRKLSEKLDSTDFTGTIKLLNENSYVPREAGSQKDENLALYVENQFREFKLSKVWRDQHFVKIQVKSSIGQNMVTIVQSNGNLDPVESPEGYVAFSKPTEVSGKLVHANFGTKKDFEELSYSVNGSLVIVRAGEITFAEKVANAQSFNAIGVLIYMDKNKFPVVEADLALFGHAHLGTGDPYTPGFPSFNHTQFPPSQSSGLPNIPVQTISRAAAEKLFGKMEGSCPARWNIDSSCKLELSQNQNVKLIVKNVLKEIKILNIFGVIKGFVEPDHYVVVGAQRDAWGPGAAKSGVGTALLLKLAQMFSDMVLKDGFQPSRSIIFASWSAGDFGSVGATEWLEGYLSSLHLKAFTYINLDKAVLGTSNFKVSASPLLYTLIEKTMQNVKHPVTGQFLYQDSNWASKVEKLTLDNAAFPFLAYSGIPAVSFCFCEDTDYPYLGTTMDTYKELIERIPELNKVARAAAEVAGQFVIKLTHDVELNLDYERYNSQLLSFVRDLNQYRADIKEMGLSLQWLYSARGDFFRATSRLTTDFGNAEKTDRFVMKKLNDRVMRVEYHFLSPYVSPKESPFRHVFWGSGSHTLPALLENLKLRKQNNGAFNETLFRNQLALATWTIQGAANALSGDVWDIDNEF
Sequence of chimeric TfR A02 (human/mouse chimera) (P02786 other isoform, or with tags, fused parts or gaps mutant): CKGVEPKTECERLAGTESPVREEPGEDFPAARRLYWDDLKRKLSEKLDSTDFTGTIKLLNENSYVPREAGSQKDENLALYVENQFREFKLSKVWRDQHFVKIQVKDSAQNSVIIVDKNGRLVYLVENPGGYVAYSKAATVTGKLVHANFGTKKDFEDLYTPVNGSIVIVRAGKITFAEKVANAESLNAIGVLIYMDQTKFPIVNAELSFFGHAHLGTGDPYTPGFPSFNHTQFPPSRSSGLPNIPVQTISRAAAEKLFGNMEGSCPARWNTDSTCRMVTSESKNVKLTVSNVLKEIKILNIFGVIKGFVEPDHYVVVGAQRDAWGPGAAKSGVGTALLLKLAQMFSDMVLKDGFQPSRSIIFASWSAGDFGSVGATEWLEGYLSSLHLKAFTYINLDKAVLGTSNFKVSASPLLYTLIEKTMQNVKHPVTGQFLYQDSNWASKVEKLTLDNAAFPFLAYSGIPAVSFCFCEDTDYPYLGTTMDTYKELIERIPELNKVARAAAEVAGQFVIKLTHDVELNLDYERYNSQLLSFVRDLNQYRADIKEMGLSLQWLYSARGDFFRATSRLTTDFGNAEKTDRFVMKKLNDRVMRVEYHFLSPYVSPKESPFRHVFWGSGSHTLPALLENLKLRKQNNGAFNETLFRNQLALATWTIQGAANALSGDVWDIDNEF

B1: 16F6v4 (antibody, from another filing, V domains shown)
VH: EVQLVESGPGLVKPSETLSLTCTVSGNSITSEYAWNWIRQPPGKGLEWIGYISYSGTTSYNPSLKSRVTISRDTSKNQLSLKLSSVTAADTAVYYCARYGYGNPATRYFDVWGQGTLVTVSS
VL: DIQMTQSPSSLSASVGDRVTITCRASKSISKYLAWYQQKPGKTNKLLLYSGSTLQSGVPSRFSGSGSGTDYTLTISSLQPEDFATYYCQQHNEYPWTFGQGTKVEIK
In the case of B1, the ratio of ELISA binding activity (A450-A570) to chimeric TfR over that to His-huTfR is less than 0.2 in assay [1]; less than 0.2 in [2]; more than 0.5 in assay [3]; 0.2 to 0.5 in assay [4]; more than 0.5 in assay [5]; more than 0.5 in [6]. Besides, the ratio of ELISA binding activity (A450-A570) to chimeric TfR over that to His-huTfR in assay [7] and in assay [8] was more than 0.5 throughout.

B2: 7A4v15 (antibody, from another filing, V domains shown)
VH: EVQLVQSGAEVKKPGASVKVSCKGSGYTFTDYAMHWVRQAPGQGLEWMGGISTYFGRTNYNQKFKGRVTMTVDTSISTAYMELSRLRSDDTAVYYCARGLSGNYVMDYWGQGTTVTVSS
VL: DIVMTQSPDSLAVSLGERATINCRASESVDSYGNSFMHWYQQKPGQPPKLLIYRASNLESGVPDRFSGSGSRTDFTLTISSLQAEDVAVYYCQQSNEAPPTFGQGTKLEIK
Consider B2, for which the ratio of ELISA binding activity (A450-A570) to chimeric TfR over that to His-huTfR in [1] is less than 0.2; in assay [2], less than 0.2; in assay [3], more than 0.5; in assay [4] it was 0.2 to 0.5; in assay [5], more than 0.5; in assay [6], 0.2 to 0.5. The ratio of ELISA binding activity (A450-A570) to chimeric TfR over that to His-huTfR in assay [7] and in assay [8] was more than 0.5 throughout.

B3: 15G11v5 (antibody, from another filing, V domains shown)
VH: EVQLVQSGAEVKKPGASVKVSCKASGYTFTSYWMHWVRQAPGQRLEWIGEINPTNGRTNYIEKFKSRATLTVDKSASTAYMELSSLRSEDTAVYYCARGTRAYHYWGQGTMVTVSS
VL: DIQMTQSPSSLSASVGDRVTITCRASDNLYSNLAWYQQKPGKSPKLLVYDATNLADGVPSRFSGSGSGTDYTLTISSLQPEDFATYYCQHFWGTPLTFGQGTKVEIK
As for B3, the ratio of ELISA binding activity (A450-A570) to chimeric TfR over that to His-huTfR was less than 0.2 in assay [1]; less than 0.2 in assay [9]; less than 0.2 in [10]; less than 0.2 in assay [2]; more than 0.5 in [5]; 0.2 to 0.5 in [6]. Further, the ratio of ELISA binding activity (A450-A570) to chimeric TfR over that to His-huTfR in assay [7] and in assay [8] was more than 0.5 in each case.
